Assay results taken from patent publication US11230581B2, “Peptides and combination of peptides for use in immunotherapy against ovarian cancer and other cancers” (Immatics Biotechnologies GmbH, priority 2015, dated 2022).

biological target: HLA-A*02:01 (Homo sapiens, UniProt P04439, D140Y/D185E/D98H/E176V/E277Q/G131W/G231S/I119V/I121R/I166T/I218V/L300P/L318F/N151K/N90K/P208A/P217A/Q86G/Q94H/R138H/R169H/T345S); test: MHC binding assay (UV-ligand exchange, β2m ELISA, peptide exchange yield); conditions: binding of HLA-class I restricted peptides to HLA-A*02:01, UV-ligand exchange
How it was run: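 Yield of stabilized complexes quantified via the β2m light chain in an ELISA (streptavidin capture, 100-fold diluted monomers, HRP anti-β2m 2 ug/ml at 37 °C, TMB, A450). The complexes come from UV-triggered replacement of a photocleavable ligand by the candidate peptide.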

Peptide exchange (MHC class I binding score, peptide exchange yield)	Substance
“+++” (≥50 = +++)	479 (SLFGNSGILENV; listed as Homo sapiens) [compound 479]
“+++” (≥50 = +++)	480 (ALLEDSCHYL; listed as Homo sapiens) [compound 480]
“+++” (≥50 = +++)	484 (SLIEKVTQL; listed as Homo sapiens) [compound 484]
“+++” (≥50 = +++)	485 (NVPDSFNEV; listed as Homo sapiens) [compound 485]
“+++” (≥50 = +++)	487 (LLINSVFHV; listed as Homo sapiens) [compound 487]
“+++” (≥50 = +++)	488 (FLAEDPKVTL; listed as Homo sapiens) [compound 488]
“+++” (≥50 = +++)	489 (KMWEELPEVV; listed as Homo sapiens) [compound 489]
“++” (≥20% = ++)	491 (GLNDRSDAV; listed as Homo sapiens) [compound 491]
“++” (≥20% = ++)	499 (KIFDIDEAEEGV; listed as Homo sapiens) [compound 499]
“+++” (≥50 = +++)	502 (RLLAQVPGL; listed as Homo sapiens) [compound 502]
“+++” (≥50 = +++)	503 (SLNHFTHSV; listed as Homo sapiens) [compound 503]
“++” (≥20% = ++)	504 (GLSDGNPSL; listed as Homo sapiens) [compound 504]
“++” (≥20% = ++)	505 (SLAPGDVVRQV; listed as Homo sapiens) [compound 505]
“+++” (≥50 = +++)	509 (FLFDTKPLIV; listed as Homo sapiens) [compound 509]
“++” (≥20% = ++)	510 (KLYSVVSQL; listed as Homo sapiens) [compound 510]
“++” (≥20% = ++)	511 (FLDPYCSASV; listed as Homo sapiens) [compound 511]
“+++” (≥50 = +++)	517 (LLMPIPEGLTL; listed as Homo sapiens) [compound 517]
“+++” (≥50 = +++)	519 (GLLHLTLLL; listed as Homo sapiens) [compound 519]
“+” (≥10% = +)	520 (LAVHPSGVAL; listed as Homo sapiens) [compound 520]

Peptide exchange (MHC class I binding score, peptide exchange yield)	Substance
“+++” (≥50 = +++)	521 (MLLTKLPTI; listed as Homo sapiens) [compound 521]
“++” (≥20% = ++)	522 (TLWYRSPEV; listed as Homo sapiens) [compound 522]
“+++” (≥50 = +++)	525 (VLLEAGEGLVTI; listed as Homo sapiens) [compound 525]
“++” (≥20% = ++)	526 (RLAEVGQYEQV; listed as Homo sapiens) [compound 526]
“++++” (≥75% = ++++)	527 (FLLEPGNLEV; listed as Homo sapiens) [compound 527]
“+++” (≥50 = +++)	528 (SVAEGRALMSV; listed as Homo sapiens) [compound 528]
“+++” (≥50 = +++)	529 (LLADELITV; listed as Homo sapiens) [compound 529]
“+++” (≥50 = +++)	530 (VMYADIGGMDI; listed as Homo sapiens) [compound 530]
“+++” (≥50 = +++)	531 (YTLPIASSIRL; listed as Homo sapiens) [compound 531]
“+++” (≥50 = +++)	537 (TLAPGEVLRSV; listed as Homo sapiens) [compound 537]
“++” (≥20% = ++)	538 (LLLAHIIAL; listed as Homo sapiens) [compound 538]
“+++” (≥50 = +++)	539 (ALFDAQAQV; listed as Homo sapiens) [compound 539]
“+++” (≥50 = +++)	541 (SMLEPVPEL; listed as Homo sapiens) [compound 541]
“+++” (≥50 = +++)	543 (GLLPTPITQQASL; listed as Homo sapiens) [compound 543]
“+++” (≥50 = +++)	546 (VMIAGKVAVV; listed as Homo sapiens) [compound 546]
“+++” (≥50 = +++)	547 (TLDITPHTV; listed as Homo sapiens) [compound 547]
“+++” (≥50 = +++)	549 (AMLENASDIKL; listed as Homo sapiens) [compound 549]
“+++” (≥50 = +++)	550 (FLYDEIEAEVNL; listed as Homo sapiens) [compound 550]

Further lines, the substance ahead of its results:

Substance	Peptide exchange (MHC class I binding score, peptide exchange yield)
478 (YLLHEKLNL; listed as Homo sapiens) [compound 478]	“+++” (≥50 = +++)
481 (GLIEDYEALL; listed as Homo sapiens) [compound 481]	“+++” (≥50 = +++)
486 (AVMESIQGV; listed as Homo sapiens) [compound 486]	“+++” (≥50 = +++)
490 (FLLQHVQEL; listed as Homo sapiens) [compound 490]	“+++” (≥50 = +++)
492 (SLFDGFADGLGV; listed as Homo sapiens) [compound 492]	“+++” (≥50 = +++)
493 (GLLGEKTQDLIGV; listed as Homo sapiens) [compound 493]	“+++” (≥50 = +++)
494 (ALQPEPIKV; listed as Homo sapiens) [compound 494]	“++” (≥20% = ++)
495 (FIFSEKPVFV; listed as Homo sapiens) [compound 495]	“+++” (≥50 = +++)
496 (FLVEKQPPQV; listed as Homo sapiens) [compound 496]	“+++” (≥50 = +++)
497 (GLLEKLTAI; listed as Homo sapiens) [compound 497]	“+++” (≥50 = +++)
498 (KLWTGGLDNTV; listed as Homo sapiens) [compound 498]	“+++” (≥50 = +++)
500 (SLMEDQVLQL; listed as Homo sapiens) [compound 500]	“+++” (≥50 = +++)
501 (LLDPNVKSIFV; listed as Homo sapiens) [compound 501]	“+++” (≥50 = +++)
506 (KLLGKVETA; listed as Homo sapiens) [compound 506]	“+++” (≥50 = +++)
507 (KLIDDQDISISL; listed as Homo sapiens) [compound 507]	“+++” (≥50 = +++)
508 (ILAQEQLVVGV; listed as Homo sapiens) [compound 508]	“+++” (≥50 = +++)
512 (SLSEIVPCL; listed as Homo sapiens) [compound 512]	“+++” (≥50 = +++)
513 (SLWPSPEQL; listed as Homo sapiens) [compound 513]	“++” (≥20% = ++)
514 (ILVDWLVQV; listed as Homo sapiens) [compound 514]	“+++” (≥50 = +++)
515 (LLQELVLFL; listed as Homo sapiens) [compound 515]	“+++” (≥50 = +++)
516 (AVGPASILKEV; listed as Homo sapiens) [compound 516]	“++” (≥20% = ++)
518 (KLNAEVACV; listed as Homo sapiens) [compound 518]	“+++” (≥50 = +++)
523 (YQIPRTFTL; listed as Homo sapiens) [compound 523]	“++” (≥20% = ++)
524 (ALIENLTHQI; listed as Homo sapiens) [compound 524]	“++” (≥20% = ++)
542 (RVWDISTVSSV; listed as Homo sapiens) [compound 542]	“+++” (≥50 = +++)
544 (LLWDVPAPSL; listed as Homo sapiens) [compound 544]	“+++” (≥50 = +++)
545 (LLADLLHNV; listed as Homo sapiens) [compound 545]	“+++” (≥50 = +++)
548 (ALWENPESGEL; listed as Homo sapiens) [compound 548]	“++” (≥20% = ++)
551 (KLYESLLPFA; listed as Homo sapiens) [compound 551]	“+++” (≥50 = +++)
